Test results as given in patent US20210277441A1, “METHOD OF SELECTING A POLYPEPTIDE OF INTEREST” (IMPERIAL COLLEGE INNOVATIONS LIMITED, priority 2018, published 2021).
Numbering of substitutions follows the chain as printed. Numbers in names are those of the source.

Key:
AL cells = test: 1H NMR analysis of fermentation broth of anaerobic cultures; type: cell-based, Escherichia coli; set-up: Substrate concentration: unit not given here
[1] = tested on: LS1 strain (ΔadhE ΔldhA double mutant) cells; test: Metabolic complementation (anaerobic growth recovery) of LS1/AL strain; type: cell-based, Escherichia coli
Protocol: (§1) The LS1 mutant strain and the parental BW25113 strain were transformed with the desired plasmid and overnight pre-cultures were grown aerobically in 15 mL Falcon tubes with M9 media (0.4% glucose). These pre-cultures were used to inoculate 10 mL Hungate tubes with M9 medium (0.4% glucose) supplemented with 100 μg/mL ampicillin, 1 mM IPTG and with or without the specific substrate of the dehydrogenase under anaerobic conditions at 37° C. Metabolic complementation was assessed by measuring the optical density at 600 nm every two hours during daytime.

[2] = Kinetics of evolved and parental enzymes, 2-methylpyrroline as variable substrate; type: biochemical; details: reductase activity towards 2-methylpyrroline
LS5 strain = test: Metabolic complementation (anaerobic growth) of quadruple mutant; type: cell-based, Escherichia coli
Protocol: as §1
Since in the triple mutants the non-deleted transhydrogenase could still be supporting anaerobic growth under anaerobic fermentation conditions when complemented with an NADPH-dependent oxidoreductase by generating oxidized NAD, the inventors generated a quadruple mutant where adhE, ldhA, sthA and pntA genes were deleted (LS5 strain, FIG. 11).

[3] = tested on: triple mutants (adhE, ldhA and one transhydrogenase gene knocked out); test: Metabolic complementation of triple mutants; type: cell-based, E. coli; details: any of the triple mutants
Excerpt: As LS1 (ΔadhE-ΔldhA double mutant) was able to grow when transformed with an NADPH-dependent oxidoreductase (wild type CBADH), the inventors generated two triple mutants where, in addition to adhE and ldhA, one transhydrogenase gene was deleted in each. Transhydrogenases catalyse the direct transfer of electrons from NADH to NADP+ and from NADPH to NAD+, in the following reaction: NADH+NADP^+=NAD^++NADPH. Without wishing to be bound to any particularly theory, the inventors hypothesized the activity of these transhydrogenases is what makes the system able to restore anaerobic growth when transformed with enzymes that generate NADP+. Two triple mutants, where one transhydrogenase gene was knocked out in addition to adhE and ldhA, were generated, since there are 2 transhydrogenase genes in E. coli: • sthA (soluble transhydrogenase) • pntA (transmembrane transhydrogenase).

[4] = Enzymatic activity assays with purified enzyme, reduction of acetone; type: biochemical
[5] = Enzymatic activity assays with purified enzyme, oxidation of isopropanol; type: biochemical
LS1 strain cells = test: GC analysis of fermentation broth; type: cell-based, Escherichia coli; details: anaerobic, media supplemented with acetone
[6] = exogenous substrate 2-nitrobenzoic acid
[7] = exogenous substrate 4-nitrobenzylic alcohol
[8] = exogenous substrate acetoin, product 2,3-butanediol
[9] = LS1, medium supplemented with acetoin
[10] = exogenous substrate 2-methyl-1-pyrroline
[11] = exogenous substrate 2-methyl-1-pyrroline, product 2-methylpyrrolidine
[12] = exogenous substrate acetone, product isopropanol

B1: nsfB nitroreductase from Enterobacter cloacae (protein, listed as Enterobacter cloacae)
chain: MDIISVALKRHSTKAFDASKKLTAEEAEKIKTLLQYSPSSTNSQPWHFIVASTEEGKARVAKSAAGTYVFNERKMLDASHVVVFCAKTAMDDAWLERVVDQEEADGRFNTPEAKAANHKGRTYFADMHRVDLKDDDQWMAKQVYLNVGNFLLGVGAMGLDAVPIEGFDAAILDEEFGLKEKGFTSLVVVPVGHHSVEDFNATLPKSRLPLSTIVTEC
Work on B1 yielded an Acetate concentration (AL cells; [6]) of 0.7, an Ethanol concentration (AL cells; [6]) of 0 and a Formate concentration (AL cells; [6]) of 0.4. For the same molecule, the Lactate concentration (AL cells; [6]) was 0, the Substrate concentration (AL cells; [6]) was 14.1 and the Succinate concentration (AL cells; [6]) was 0. The Acetate concentration (AL cells; [7]) was 0.8, the Ethanol concentration (AL cells; [7]) was 0 and the Formate concentration (AL cells; [7]) was 0.4. For the same molecule, the Lactate concentration (AL cells; [7]) was 0, the Substrate concentration (AL cells; [7]) was 8.28 and the Succinate concentration (AL cells; [7]) was 0.

B2: EntNFSB-s1: nitroreductase variant selected for 2-NBA (protein)
chain: B1 chain with S40A, T41I, F124A
modifications: amino acid variant of Enterobacter cloacae nitroreductase
notes: nitroreductase variant selected for 2-NBA
In the case of B2, the Acetate concentration (AL cells; [6]) is reported as 4.4, the Ethanol concentration (AL cells; [6]) is reported as 0 and the Formate concentration (AL cells; [6]) is reported as 2.9. The Lactate concentration (AL cells; [6]) was 0, the Substrate concentration (AL cells; [6]) was 12.4 and the Succinate concentration (AL cells; [6]) was 0.3.

B3: EntNFSB-s2: nitroreductase variant identified for cells grown with 4-nitrobenzyl alcohol (protein)
chain: B1 chain with T41L, Y68L, F124L
modifications: no acid variant of Enterobacter cloacae nitroreductase
notes: nitroreductase variant identified for cells grown with 4-nitrobenzyl alcohol
B3 showed an Acetate concentration (AL cells; [7]) of 13.2, an Ethanol concentration (AL cells; [7]) of 0 and a Formate concentration (AL cells; [7]) of 7.9. It also gave a Lactate concentration (AL cells; [7]) of 0, a Substrate concentration (AL cells; [7]) of 0 and a Succinate concentration (AL cells; [7]) of 1.

B4: pLS3: pUC19 with sADH NADH-dependent from Klebsiella pneumoniae (budC), acetoin reductase (protein, UniProt Q48436 1-256, looked up)
Diacetyl reductase …: MKKVALVTGAGQGIGKAIALRLVKDGFAVAIADYNDATAKAVASEINQAGGRAMAVKVDVSDRDQVFAAVEQARKTLGGFDVIVNNAGVAPSTPIESITPEIVDKVYNINVKGVIWGIQAAVEAFKKEGHGGKIINACSQAGHVGNPELAVYSSSKFAVRGLTQTAARDLAPLGITVNGYCPGIVKTPMWAEIDRQVSEAAGKPLGYGTAEFAKRITLGRLSEPEDVAACVSYLASPDSDYMTGQSLLIDGGMVFN
modifications: expressed from pUC19 plasmid
notes: pUC19 with sADH NADH-dependent from Klebsiella pneumoniae (budC), acetoin reductase
In the case of B4, the Acetate concentration (AL cells; exogenous substrate acetoin) is reported as 7.9, the Ethanol concentration (AL cells; exogenous substrate acetoin) is reported as 0 and the Formate concentration (AL cells; exogenous substrate acetoin) is reported as 5. For the same molecule, the Lactate concentration (AL cells; exogenous substrate acetoin) was 0, the Substrate concentration (AL cells; exogenous substrate acetoin) was 0.2 and the Succinate concentration (AL cells; exogenous substrate acetoin) was 0.7. For the same molecule, the Product concentration (AL cells; [8]) was 8.3 and the anaerobic growth recovery [1, 9] was “growth recovery was achieved”.

B5: pLS2: pUC19 with sADH NADH-dependent from Bacillus subtilis (bdhA), acetoin reductase (protein, UniProt O34788 1-346, looked up)
(R,R)-butanediol dehydrogenase: MKAARWHNQKDIRIEHIEEPKTEPGKVKIKVKWCGICGSDLHEYLGGPIFIPVDKPHPLTNETAPVTMGHEFSGEVVEVGEGVENYKVGDRVVVEPIFATHGHQGAYNLDEQMGFLGLAGGGGGFSEYVSVDEELLFKLPDELSYEQGALVEPSAVALYAVRSSKLKAGDKAAVFGCGPIGLLVIEALKAAGATDIYAVELSPERQQKAEELGAIIVDPSKTDDVVAEIAERTGGGVDVAFEVTGVPVVLRQAIQSTTIAGETVIVSIWEKGAEIHPNDIVIKERTVKGIIGYRDIFPAVLSLMKEGYFSADKLVTKKIVLDDLIEEGFGALIKEKSQVKILVRPN
modifications: expressed from pUC19 plasmid
notes: pUC19 with sADH NADH-dependent from Bacillus subtilis (bdhA), acetoin reductase
Work on B5 yielded an Acetate concentration (AL cells; exogenous substrate acetoin) of 6.7, an Ethanol concentration (AL cells; exogenous substrate acetoin) of 0 and a Formate concentration (AL cells; exogenous substrate acetoin) of 3.7. It also gave a Lactate concentration (AL cells; exogenous substrate acetoin) of 0, a Substrate concentration (AL cells; exogenous substrate acetoin) of 0 and a Succinate concentration (AL cells; exogenous substrate acetoin) of 0.5. For the same molecule, the Product concentration (AL cells; [8]) was 8.4 and the anaerobic growth recovery [1, 9] was “growth recovery was achieved”.

B6: MsIRED-s: MsIRED variant with N32E, R33V, T34R and K37R, NADH-dependent (protein)
chain: MKPTLTVIGAGRMGSALIKAFLQSGYTTTVWEVRKARSEPLAKLGAHLADTVRDAVKRSDIIVVNVLDYDTSDQLLRQDEVTRELRGKLLVQLTSGSPALAREQETWARQHGIDYLDGAIMATPDFIGQAECALLYSGSAALFEKHRAVLNVLGGATSHVGEDVGHASALDSALLFQMWGTLFGTLQALAISRAEGIPLEKTTAFIKLTEPVTQGAVADVLTRVQQNRLTADAQTLASLEAHNVAFQHLLALCEERNIHRGVADAMYSVIREAVKAGHGKDDFAILTRFLK
modifications: variant of Myxococcus stipitatus imine reductase
notes: MsIRED variant with N32E, R33V, T34R and K37R, NADH-dependent
In the case of B6, the “activity with NADPH” value [2] is reported as “no activity was detected”, the Acetate concentration (AL cells; [10]) is reported as 15.9 and the Ethanol concentration (AL cells; [10]) is reported as 0. The Formate concentration (AL cells; [10]) was 12.8, the Lactate concentration (AL cells; [10]) was 0 and the Substrate concentration (AL cells; [10]) was 0.8. The Succinate concentration (AL cells; [10]) was 2, the Product concentration (AL cells; [11]) was 13.4 and the “anaerobic growth compared with best variant of previous studies” value ([1]; media supplemented with 2-methylpyrroline) was “more efficiently”.

B7: Myxococcus stipitatus imine reductase (protein)
chain: B6 chain with E32N, V33R, R34T, R37K
modifications: Myxococcus stipitatus imine reductase
B7 gave an Acetate concentration (AL cells; [10]) of 4.3, an Ethanol concentration (AL cells; [10]) of 0 and a Formate concentration (AL cells; [10]) of 2.1. For the same molecule, the Lactate concentration (AL cells; [10]) was 0, the Substrate concentration (AL cells; [10]) was 5.5 and the Succinate concentration (AL cells; [10]) was 1.2. It also gave a Product concentration (AL cells; [11]) of 6.6.

B8: Clostridium beijerinckii alcohol dehydrogenase (protein, listed as Clostridium beijerinckii)
chain: MKGFAMLGINKLGWIEKERPVAGSYDAIVRPLAVSPCTSDIHTVFEGALGDRKNMILGHEAVGEVVEVGSEVKDFKPGDRVIVPCTTPDWRSLEVQAGFQQHSNGMLAGWKFSNFKDGVFGEYFHVNDADMNLAILPKDMPLENAVMITDMMTTGFHGAELADIQMGSSVVVIGIGAVGLMGIAGAKLRGAGRIIGVGSRPICVEAAKFYGATDILNYKNGHIVDQVMKLTNGKGVDRVIMAGGGSETLSQAVSMVKPGGIISNINYHGSGDALLIPRVEWGCGMAHKTIKGGLCPGGRLRAEMLRDMVVYNRVDLSKLVTHVYHGFDHIEEALLLMKDKPKDLIKAVVIL
With B8 the Acetate concentration (AL cells; exogenous substrate acetone) was 8.1, the Ethanol concentration (AL cells; exogenous substrate acetone) was 0 and the Formate concentration (AL cells; exogenous substrate acetone) was 5.8. It also gave a Lactate concentration (AL cells; exogenous substrate acetone) of 0, a Substrate concentration (AL cells; exogenous substrate acetone) of 0.1 and a Succinate concentration (AL cells; exogenous substrate acetone) of 1.1. For the same molecule, the Product concentration (AL cells; [12]) was 10.8, the “time after which growth recovery was observed” value ([1]; LS1 cells cultured anaerobically, media supplemented with acetone) was 55 h and the anaerobic growth (LS5 strain; media supplemented with acetone or not) was “anaerobic growth is not restored”. For the same molecule, the anaerobic growth [3] was “still able to grow anaerobically”.

B9: CBADH-s: CBADH variant with substitutions G198D, S199Y and Y218P, uses NADH instead of NADPH (protein)
chain: B8 chain with G198D, S199Y, Y218P
modifications: amino acid variant of CBADH
notes: CBADH variant with substitutions G198D, S199Y and Y218P, uses NADH instead of NADPH
Work on B9 yielded an Acetate concentration (AL cells; exogenous substrate acetone) of 13, an Ethanol concentration (AL cells; exogenous substrate acetone) of 0 and a Formate concentration (AL cells; exogenous substrate acetone) of 9.9. It also gave a Lactate concentration (AL cells; exogenous substrate acetone) of 0, a Substrate concentration (AL cells; exogenous substrate acetone) of 0.5 and a Succinate concentration (AL cells; exogenous substrate acetone) of 1.1. For the same molecule, the Product concentration (AL cells; [12]) was 12.7, the anaerobic growth recovery ([1]; LS1, media supplemented with acetone) was “allowed growth recovery” and the anaerobic growth (LS5 strain; media supplemented with acetone) was “anaerobic growth is restored”. For the same molecule, the “increase in activity compared to the wild type” value ([4]; reduction of acetone to isopropanol, NADH as the cofactor, purified enzyme) was 4.6 fold, the “activity with NADP(H) as the cofactor” value ([4]; reduction reaction) was “no significant activity” and the “increase in activity compared to the wild type” value ([5]; oxidation of isopropanol to acetone, NAD+ as the cofactor, purified enzyme) was “io”. For the same molecule, the “activity with NADP(H) as the cofactor” value ([5]; oxidation reaction) was “no significant activity” and the “isopropanol in fermentation broth compared with pLS6” value (LS1 strain cells) was “much higher levels”.
